Data: US8399201B2, “Polypeptide complex of TRPM8 and calmodulin and its uses thereof” (Janssen Pharmaceutica N.V., priority 2005, dated 2013)

B1: TRPM8-2/pAGA3: Rat TRPM8 fragment, residues M353-T690, 337 aa (protein)
chain: MVKEKLVRFLPRTVSRLPEEEIESWIKWLKEILESPHLLTVIKMEEAGDEVVSSAISYALYKAFSTNEQDKDNWNGQLKLLLEWNQLDLASDEIFTNDRRWESADLQEVMFTALIKDRPKFVRLFLENGLNLQKFLTNEVLTELFSTHFSTLVYRNLQIAKNSYNDALLTFVWKLVANFRRSFWKEDRSSREDLDVELHDASLTTRHPLQALFIWAILQNKKELSKVIWEQTKGCTLAALGASKLLKTLAKVKNDINAAGESEELANEYETRAVELFTECYSSDEDLAEQLLVYSCEAWGGSNCLELAVEATDQHFIAQPGVQNFLSKQWYGEISRDT
B2: TRPM8-7/pAGA3: Rat TRPM8 fragment, residues V145-S352, 207 aa (protein)
chain: VISVTGGAKNFALKPRMRKIFSRLIYIAQSKGAWILTGGTHYGLMKYIGEVVRDNTISRNSEENIVAIGIAAWGMVSNRDTLIRNCDDEGHFSAQYIMDDFMRDPLYILDNNHTHLLLVDNGCHGHPTVEAKLRNQLEKYISERTSQDSNYGGKIPIVCFAQGGGRETLKAINTSVKSKIPCVVVEGSGQIADVIASLVEVEDVLTSS
B3: TRPM8-4/pAGA3: Rat TRPM8 fragment, residues I609-K1104 (end), 495 aa (protein)
chain: NAAGESEELANEYETRAVELFTECYSSDEDLAEQLLVYSCEAWGGSNCLELAVEATDQHFIAQPGVQNFLSKQWYGEISRDTKNWKIILCLFIIPLVGCGLVSFRKKPIDKHKKLLWYYVAFFTSPFVVFSWNVVFYIAFLLLFAYVLLMDFHSVPHTPELILYALVFVLFCDEVRQWYMNGVNYFTDLWNVMDTLGLFYFIAGIVFRLHSSNKSSLYSGRVIFCLDYIIFTLRLIHIFTVSRNLGPKIIMLQRMLIDVFFFLFLFAVWMVAFGVARQGILRQNEQRWRWIFRSVIYEPYLAMFGQVPSDVDSTTYDFSHCTFSGNESKPLCVELDEYNLPRFPEWITIPLVCIYMLSTNILLVNLLVAMFGYTVGIVQENNDQVWKFQRYFLVQEYCNRLNIPFPFVVFAYFYMVVKKCFKCCCKEKNTESSACCFRNEDNETLAWEGVMKENYLVKINTKANDNAEEMRHRFRQLDTKLNDLKGLLKEIANKIK
B4: TRPM8-6/pAGA3: Rat TRPM8 fragment, residues M63-S352, 289 aa (protein)
chain: AMESICKCGYAQSQHIEGTQINQNEKWNYKKHTKEFPTDAFGDIQFETLGKKGKYLRLSCDTDSETLYELLTQHWHLKTPNLVISVTGGAKNFALKPRMRKIFSRLIYIAQSKGAWILTGGTHYGLMKYIGEVVRDNTISRNSEENIVAIGIAAWGMVSNRDTLIRNCDDEGHFSAQYIMDDFMRDPLYILDNNHTHLLLVDNGCHGHPTVEAKLRNQLEKYISERTSQDSNYGGKIPIVCFAQGGGRETLKAINTSVKSKIPCVVVEGSGQIADVIASLVEVEDVLTSS
B5: TRPM8-1/pAGA3: Rat TRPM8 fragment, residues M1-K432, 432 aa, in vitro translated from pAGA3 (protein)
chain: MSFEGARLSMRSRRNGTLGSTRTLYSSVSRSTDVSYSESDLVNFIQANFKKRECVFFTRDSKAMESICKCGYAQSQHIEGTQINQNEKWNYKKHTKEFPTDAFGDIQFETLGKKGKYLRLSCDTDSETLYELLTQHWHLKTPNLVISVTGGAKNFALKPRMRKIFSRLIYIAQSKGAWILTGGTHYGLMKYIGEVVRDNTISRNSEENIVAIGIAAWGMVSNRDTLIRNCDDEGHFSAQYIMDDFMRDPLYILDNNHTHLLLVDNGCHGHPTVEAKLRNQLEKYISERTSQDSNYGGKIPIVCFAQGGGRETLKAINTSVKSKIPCVVVEGSGQIADVIASLVEVEDVLTSSMVKEKLVRFLPRTVSRLPEEEIESWIKWLKEILESPHLLTVIKMEEAGDEVVSSAISYALYKAFSTNEQDKDNWNGQLKL
B6: TRPM8-8/pAGA3: Rat TRPM8 fragment, residues M219-S352, 133 aa (protein)
chain: MVSNRDTLIRNCDDEGHFSAQYIMDDFMRDPLYILDNNHTHLLLVDNGCHGHPTVEAKLRNQLEKYISERTSQDSNYGGKIPIVCFAQGGGRETLKAINTSVKSKIPCVVVEGSGQIADVIASLVEVEDVLTSS
B7: TRPM8-10/pAGA3: Rat TRPM8 fragment, residues D198-S352, 154 aa (protein)
chain: DNTISRNSEENIVAIGIAAWGMVSNRDTLIRNCDDEGHFSAQYIMDDFMRDPLYILDNNHTHLLLVDNGCHGHPTVEAKLRNQLEKYISERTSQDSNYGGKIPIVCFAQGGGRETLKAINTSVKSKIPCVVVEGSGQIADVIASLVEVEDVLTSS
B8: TRPM8-9/pAGA3: Rat TRPM8 fragment, residues A172-S352, 180 aa (protein)
chain: AQSKGAWILTGGTHYGLMKYIGEVVRDNTISRNSEENIVAIGIAAWGMVSNRDTLIRNCDDEGHFSAQYIMDDFMRDPLYILDNNHTHLLLVDNGCHGHPTVEAKLRNQLEKYISERTSQDSNYGGKIPIVCFAQGGGRETLKAINTSVKSKIPCVVVEGSGQIADVIASLVEVEDVLTSS

Each molecule was assayed against T1, calmodulin (Rattus norvegicus, UniProt P0DP29) (assay: Pull-down of 35S-methionine-labelled TRPM8 fragments on GST-CaM agarose-GSH beads, SDS/PAGE and autoradiography). Conditions: TRPM8 fragments, FIG. 1 and FIG. 2.
T1 construct: made in house; host or cells: Escherichia coli BL21 (pGEX-4T-1 based plasmid)
Format: binding
Design: key to Binding (binding activity to calmodulin): (+) binding was detected; (−) no binding was detected
Method: ^35S-methionine labelled TRPM8 fragments were synthesized using TnT® T7 Quick Coupled Transcription/Translation System (Promega) following the vendor recommended protocol. Briefly, 10 μl of 0.1 μg/μl pAGA3 based TRPM8 construct (listed in Table 1) was added to 90 μl of TNT Quick Master Mix with 2 μl of [^35S]-methionine (1000 Ci/mmmol at 10 mCi/ml). The reaction mixture was incubated at 30° C. for 90 min. Aliquots of the incubation mixtures were used directly either for analysis by SDS/PAGE to confirm synthesis of proteins of the desired size or for the ability to bind to GST or GST-CaM.
The GST-CaM fusion plasmid was based on pGEX-4T-1 (Amersham Pharmacia). The CaM was fused to the C-terminus of GST. After transformation into Escherichia coli BL21, a single colony was picked and grown in brow medium to OD of 1.0 at 600 nm. The synthesis of the fusion protein was induced with 0.2 mM isopropyl β-D-thiogalactoside (IPTG). After growing 2-3 hours in the presence of IPTG at 27° C., the cells were collected by centrifugation, resuspended in NETN lysis buffer (0.5% Nonidet P-40/1 mM EDTA/20 mM Tris-HCl, pH8.0/100 mM NaCl; 1 ml of buffer per 20 ml of culture), and lysed by sonication. The cell lysate was separated from the cell debris by centrifugation at 10,000 g for 10 min at 4° C. GST-CaM in the cell lysate was adsorbed for 30 min at room temperature to agarose-glutathione (GSH) beads (Amersham Pharmacia) (1 vol. of lysates/1 vol of 50% (vol/vol) slurry of Agarose-GSH beads in NETN). The beads were washed with binding buffer (20 mM Tris-HCl, pH7.5/100 mM NaCl/2 mM CaCl2/0.5% Tween20).
Agarose-GSH beads (50% (vol./vol.)) bound with about 1 μg of GST or GST-CaM were incubated with 10 μl of ^35S-labelled TRPM8 fragment for 30 min at room temperature in a final volume of 200 μl of binding buffer. At the end of the incubation, the beads were washed three times with 1.0 ml of binding buffer and resuspended in 20 μl of 2× laemmli's sample loading buffer. Protein(s) bound to the beads, including the GST-CaM fusion protein, and possibly the ^35S-labelled TRPM8 fragment that interact with the GST-CaM fusion protein, were separated by SDS/PAGE followed by autoradiography.
B1 was tested, and the “binding to CaM (result in words)” value was “not”. For B2, the “binding to CaM (result in words)” value was “found to bind CaM”. B3 was tested, and the “binding to CaM (result in words)” value was “not”. With B4 the “binding to CaM (result in words)” value was “found to bind CaM”. With B5 the “binding to CaM (result in words)” value was “found to bind to CaM”.

Same assay, conditions: rat TRPM8 constructs; binding buffer with 2 mM CaCl2, 30 min room temperature
In the case of B1, the “Binding (binding activity to calmodulin)” value is reported as “−”. B2 was tested, and the “Binding (binding activity to calmodulin)” value was “+”. For B3, the “Binding (binding activity to calmodulin)” value was “−”. For B4, the “Binding (binding activity to calmodulin)” value was “+”. For B6, the “Binding (binding activity to calmodulin)” value was “−”. B7 was tested, and the “Binding (binding activity to calmodulin)” value was “−”. For B5, the “Binding (binding activity to calmodulin)” value was “+”. In the case of B8, the “Binding (binding activity to calmodulin)” value is reported as “−”.
